The target in data set [1] is T1, Zscan4(ZnF) (Mus musculus, UniProt Q80VJ6 369-506).
T1 sequence: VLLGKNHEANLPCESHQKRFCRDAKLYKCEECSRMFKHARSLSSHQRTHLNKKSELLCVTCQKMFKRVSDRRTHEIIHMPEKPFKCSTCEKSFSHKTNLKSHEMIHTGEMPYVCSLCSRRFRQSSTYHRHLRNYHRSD
The data set can be described thus: EMSA.

For data set [2], the target named is T1, Zscan4(ZnF). The data set is described as follows: EMSA. The source holds these as a separate data set.

B1: (TG)n oligo (dsDNA)
DNA 1: TGTGTGCATCTGTGTGCATCAT
DNA 2: ATGATGCACACAGATGCACACA
In the data set with Zscan4(ZnF) [1], B1 had a Kd of roughly 500 µM.

B2: (GC)n oligo (dsDNA)
DNA 1: TCGCGCGTCGCGCGTCGCGCGC
DNA 2: GCGCGCGACGCGCGACGCGCGA
For the molecule B2, the binding result with Zscan4(ZnF) [2] was “no binding”.

The values are drawn from publication PMC7083622.
